Experimental data as given in the supplement of paper PMC7125110.
± gives the standard error. Fewer inactive variants are shown than the library holds.

B1: glmS ribozyme (parent)
chain: AUAAAAGCGCCAGAACUACAGAAAUGUAGUUGACGAGGAGGAGGUUUAUCGAAUUUUCGGCGGAUGCCUCCAAA

How the values were obtained:
Settings in all cases: with glucosamine-6-phosphate
glucosamine-6-phosphate [1] = variants of: B1; assay: self-cleavage kobs at 160 uM GlcN6P; higher = faster cleavage; RNA array
Summary of the method: (§1)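 In situ transcription by E. coli RNA polymerase produced barcoded ribozyme variants on sequenced MiSeq chips, and a hybridised Cy3 probe tracked them at 37 °C. Glucosamine-6-phosphate was flowed in at 40 μM to 10 mM in HEPES/KCl/Mg(OAc)2 buffer. kcat and KM were taken from weighted Michaelis–Menten fits of kobs values from exponential decay fits.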

glucosamine-6-phosphate [2] = variants of: B1; assay: self-cleavage kobs at 640 uM GlcN6P; higher = faster cleavage; RNA array
Summary of the method: as §1

glucosamine-6-phosphate [3] = variants of: B1; assay: self-cleavage kobs at 2500 uM GlcN6P; higher = faster cleavage; RNA array
Summary of the method: as §1

glucosamine-6-phosphate [4] = variants of: B1; assay: self-cleavage kobs at 10000 uM GlcN6P; higher = faster cleavage; RNA array
Summary of the method: as §1

Variant | self-cleavage kobs at 160 uM GlcN6P (glucosamine-6-phosphate [1]) [s⁻¹] | self-cleavage kobs at 640 uM GlcN6P (glucosamine-6-phosphate [2]) [s⁻¹] | self-cleavage kobs at 2500 uM GlcN6P (glucosamine-6-phosphate [3]) [s⁻¹] | self-cleavage kobs at 10000 uM GlcN6P (glucosamine-6-phosphate [4]) [s⁻¹]
G7A U57A | < 1e-05 | < 1e-05 | < 1e-05 | < 1e-05
G7C G32C G43U G60U | < 1e-05 | – | < 1e-05 | < 1e-05
G7U C16U | < 1e-05 | – | – | –
G7U G51U | < 1e-05 | < 1e-05 | < 1e-05 | < 1e-05
G9U C19A | < 1e-05 | – | – | –
C8A G9U G32A G51A | < 1e-05 | – | – | –
C10U A39U G59A C70U | < 1e-05 | – | < 1e-05 | –
G7U C19U G38U | < 1e-05 | – | < 1e-05 | –
C8A C11U C50G A53U G63A | 0.00012 ± 2.8e-05 | 0.000594 ± 0.00015 | 9.63e-05 ± 3.3e-05 | –
C11A A53C C67G | < 1e-05 | < 1e-05 | – | –
C10U C34U G38C A39U | < 1e-05 | – | – | –
C10A G41U C68G | < 1e-05 | – | < 1e-05 | –
C8U U56G | < 1e-05 | < 1e-05 | < 1e-05 | –
C8G A14G C34G | < 1e-05 | < 1e-05 | < 1e-05 | –
G9U C58G G63U | < 1e-05 | – | < 1e-05 | < 1e-05
G7C C10G U45C | < 1e-05 | – | – | –
G7U A14U U55C C70U | < 1e-05 | – | – | –
C11G A33U G44U U49A U65G | < 1e-05 | < 1e-05 | < 1e-05 | –
G7U G13C G35U G37A | < 1e-05 | – | < 1e-05 | –
C8U G32C G43C C70G | < 1e-05 | – | – | –
G7A G41A C70G | < 1e-05 | – | – | –
G9C G32C A33C A39G C61A | < 1e-05 | – | < 1e-05 | –
C10G A48C G51U U65C | < 1e-05 | < 1e-05 | < 1e-05 | –
G7U A12C U54A C58A C70G | < 1e-05 | – | < 1e-05 | –
C10A A33C G40C C70U | < 1e-05 | < 1e-05 | – | –
G9A C34A | < 1e-05 | < 1e-05 | < 1e-05 | < 1e-05
C10U G62C | < 1e-05 | – | < 1e-05 | < 1e-05

Variant | self-cleavage kobs at 160 uM GlcN6P (glucosamine-6-phosphate [1]) [s⁻¹] | self-cleavage kobs at 640 uM GlcN6P (glucosamine-6-phosphate [2]) [s⁻¹] | self-cleavage kobs at 2500 uM GlcN6P (glucosamine-6-phosphate [3]) [s⁻¹] | self-cleavage kobs at 10000 uM GlcN6P (glucosamine-6-phosphate [4]) [s⁻¹]
G7A U31C G60U | < 1e-05 | – | < 1e-05 | –
G7A U30C C61A C67U | < 1e-05 | – | – | –
C8U G40U A48U U65A | < 1e-05 | < 1e-05 | < 1e-05 | –
C10U G44A U57C G62A | < 1e-05 | < 1e-05 | – | –
C10G A42G G44C A53G G60U | < 1e-05 | < 1e-05 | – | –
C11U A15G G44U G60U | < 1e-05 | < 1e-05 | < 1e-05 | –
G7A G40A | < 1e-05 | < 1e-05 | – | –
G9A A48U | < 1e-05 | < 1e-05 | < 1e-05 | –
G7U G13U | < 1e-05 | – | < 1e-05 | < 1e-05
C8A G40C G41C G63U | < 1e-05 | < 1e-05 | – | –
C8G G38A A48U C61U | < 1e-05 | – | – | –
C10U G51U | < 1e-05 | < 1e-05 | < 1e-05 | < 1e-05
G9C G29U C50G C70G | 0.000652 ± 0.00019 | 0.000131 ± 4.2e-05 | 0.000253 ± 9.9e-05 | –
C8A U57C | < 1e-05 | < 1e-05 | < 1e-05 | –
C10G A36C | < 1e-05 | < 1e-05 | < 1e-05 | –
C11A G38U G40U | < 1e-05 | – | – | –
C8A A36U C50G A52U | < 1e-05 | < 1e-05 | < 1e-05 | –
C11A A12U | 7.68e-05 ± 1.8e-05 | 0.000339 ± 6e-05 | 0.000539 ± 7.7e-05 | 0.00156 ± 0.00028
C11U A33C A53U | < 1e-05 | < 1e-05 | – | –
C10U A36G U46C | < 1e-05 | – | < 1e-05 | < 1e-05
G7U A12C G41A | < 1e-05 | – | < 1e-05 | –
G9A G37A A42U | < 1e-05 | < 1e-05 | – | –
C8U A12C A42U A53U C61A | < 1e-05 | < 1e-05 | < 1e-05 | –
C8U A42G G63A | < 1e-05 | < 1e-05 | < 1e-05 | –
C8A G44C C68A C71G | < 1e-05 | – | – | –
C8A G35C C61G | < 1e-05 | < 1e-05 | < 1e-05 | –
